Assay results reported in PMC9645730, “Cryo-EM structure of the human sodium-chloride cotransporter NCC” (Science Advances, 2022).

Target: the molecule itself
Test: cryo-EM structure; single-particle analysis of purified NCC at 9 mg/ml in 25 mM tris (pH 8.0), 150 mM NaCl, 0.02% GDN; TMD map with C2 symmetry, overall map with C1 symmetry

B1: human sodium-chloride cotransporter NCC (natural protein, UniProt P55017-1 1-1021, looked up)
chain: MAELPTTETPGDATLCSGRFTISTLLSSDEPSPPAAYDSSHPSHLTHSSTFCMRTFGYNTIDVVPTYEHYANSTQPGEPRKVRPTLADLHSFLKEGRHLHALAFDSRPSHEMTDGLVEGEAGTSSEKNPEEPVRFGWVKGVMIRCMLNIWGVILYLRLPWITAQAGIVLTWIIILLSVTVTSITGLSISAISTNGKVKSGGTYFLISRSLGPELGGSIGLIFAFANAVGVAMHTVGFAETVRDLLQEYGAPIVDPINDIRIIGVVSVTVLLAISLAGMEWESKAQVLFFLVIMVSFANYLVGTLIPPSEDKASKGFFSYRADIFVQNLVPDWRGPDGTFFGMFSIFFPSATGILAGANISGDLKDPAIAIPKGTLMAIFWTTISYLAISATIGSCVVRDASGVLNDTVTPGWGACEGLACSYGWNFTECTQQHSCHYGLINYYQTMSMVSGFAPLITAGIFGATLSSALACLVSAAKVFQCLCEDQLYPLIGFFGKGYGKNKEPVRGYLLAYAIAVAFIIIAELNTIAPIISNFFLCSYALINFSCFHASITNSPGWRPSFQYYNKWAALFGAIISVVIMFLLTWWAALIAIGVVLFLLLYVIYKKPEVNWGSSVQAGSYNLALSYSVGLNEVEDHIKNYRPQCLVLTGPPNFRPALVDFVGTFTRNLSLMICGHVLIGPHKQRMPELQLIANGHTKWLNKRKIKAFYSDVIAEDLRRGVQILMQAAGLGRMKPNILVVGFKKNWQSAHPATVEDYIGILHDAFDFNYGVCVMRMREGLNVSKMMQAHINPVFDPAEDGKEASARVDPKALVKEEQATTIFQSEQGKKTIDIYWLFDDGGLTLLIPYLLGRKRRWSKCKIRVFVGGQINRMDQERKAIISLLSKFRLGFHEVHILPDINQNPRAEHTKRFEDMIAPFRLNDGFKDEATVNEMRRDCPWKISDEEITKNRVKSLRQVRLNEIVLDYSRDAALIVITLPIGRKGKCPSSLYMAWLETLSQDLRPPVILIRGNQENVLTFYCQ
modifications: N-acetylglucosamine on Asn406 and Asn426; disulfide bonds Cys416-Cys421 and Cys430-Cys436
notes: human NCC (SLC12A3), cloned from HEK293 cDNA; an isoform that, compared with UniProt P55017-1, carries the naturally occurring A264G and lacks Gln95; residue numbers count on P55017-1; The atomic model holds residues 137-605 (TMD) and 616-1020 (CTD, docked as a rigid body from a SWISS-MODEL prediction); No cleavage of the tags is told; also called Na+-Cl- cotransporter; SLC12A3; not shown: FLAG, …
- stoichiometry N: 2
